Test results reported in US20090075925A1, “Methods and Compositions Related to APOBEC-1 Expression” (priority 2006, published 2009).

Target: rat APOBEC-1 (endogenous, rat liver nuclear extract and McArdle cells) (rat)
Assay: cell-based or functional assay

Substance: rat ACF64 S154D (from UniProt Q923K9 1-586)
- apoB mRNA editing in stable McArdle cell lines: 67%
